The text below walks through data of patent publication US20170247475A1 (Boehringer Ingelheim, published 2017).

Numbering of substitutions follows the chain as printed.

This assay addresses T1, recombinant human VEGF165 (human, UniProt P15692-4 27-191).
T1 construct: also called hVEGF165; rhVEGF165
Put plainly: ELISA screen, periplasmic extract on coated hVEGF165. The source says:
Wells are blocked with a casein solution (1%). After addition of typically a 10-fold dilution of the periplasmic extracts, VHH binding is detected using a mouse anti-myc (Roche) and an anti-mouse-HRP conjugate (DAKO). Clones showing ELISA signals of >3-fold above background are considered as VEGF binding VHHs.

T1 sequence (P15692 other isoform, or with tags, fused parts or gaps limits assumed): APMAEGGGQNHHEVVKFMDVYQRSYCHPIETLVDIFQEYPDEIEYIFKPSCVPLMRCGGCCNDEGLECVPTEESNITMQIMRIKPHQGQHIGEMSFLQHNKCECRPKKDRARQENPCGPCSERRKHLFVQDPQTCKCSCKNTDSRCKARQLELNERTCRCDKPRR

B1: VEGFBII12E10 (VHH)
VHH: EVQLVESGGGLAQAGGSLRLSCTASGRTFNNYVMGWFRQAPGNEREFVAAITSTNGPTYYADSVKGRFTISGDNTKNKVFLQMDSLRPEDTAVYYCAIDEDLYHYSSYHYTRVALYHYWGQGTQVTVSS
On to B1, for which the binding result is on record as “binds”.

B2: VEGFBII09D05 (VHH)
VHH: EVQLVESGGGLVQPGDSLRLSCAASGLSFSRYGMGWFRQAPGKEREFVIAISEYDNVYTADSVRGRFTISRDNSKSTVYLQMNSLKSEDTAVYYCAASPTILLSTDEWYKYWGRGTQVTVSS
Take B2: the binding result is given as “binds”.

B3: VEGFBII16F11 (VHH)
VHH: EVQLVESGGGLVQAGGSLRLSCAASGRTSSGYDMGWFRQAPGKEREFVTAITWSGGSTYSPDSVKGRFTISRDNAKNTVYLQMNNLTPEDTAVYYCASGRIWRSRDYDSEKYYDIWGHGTQVTVSS
Regarding B3, the binding result is “binds”.

B4: VEGFBII09F05 (VHH)
VHH: EVQLVESGGGLVQAGGSLRLSCAASGRTFSTDDVGWFRQAPGKEREFVAVIRWSTGGTYTSDSVKGRFTLSRDNAKNTMYLQMNSLKPEDTAVYYCAARSRPLGAGAWYTGETRYNYWGQGTQVTVSS
Turning to B4, the binding result was “binds”.

B5: VEGFBII16C03 (VHH)
VHH: B4 VHH with G8E, T113N, R114Y
As for B5, the binding result is listed as “binds”.

B6: VEGFBII09A12 (VHH)
VHH: B4 VHH with K65A, N116D, Y117S
For B6, the binding result was “binds”.

B7: VEGFBII12B01 (VHH)
VHH: EVQLVESGGGLVQPGGSLRLACAASGFTLSSSWMYWVRQAPGKGLEWVSRISPGGLFTYYVDSVKGRFSVSTDNANNTLYLQMNSLKPEDTALYSCAKGGAPNYTPRGRGTQVTVSS
As to B7, the binding result is on record as “binds”.

B8: VEGFBII39H11 (VHH)
VHH: EVQLVESGGGLVQAGGSLRLSCAASGRTFSAYDMGWFRQAPGKEREFVAVISWTGGMTYYADSVKGRFTISRDKAKNTVSLQMNSLKPEDTAVYYCAVDRRRTYSRWRYYTGVNEYEYWGQGTQVTVSS
With B8, the binding result was “binds”.

B9: VEGFBII36C08 (VHH)
VHH: B8 VHH with G55N, G56S, K74N, S80Y, Y109F, E115D, E117D
Turning to B9, the binding result is given as “binds”.

B10: VEGFBII37F09 (VHH)
VHH: B8 VHH with A14T, T54S, K65Q, K74N, N77S, S80Y, L86P, T103A, E115D, Y118F
For B10, the binding result is “binds”.

B11: VEGFBII41D11 (VHH)
VHH: B8 VHH with V5M
Turning to B11, the binding result is on record as “binds”.

B12: VEGFBII41B06 (VHH)
VHH: B8 VHH with G56D, V98A
For B12, the binding result is recorded as “binds”.

B13: VEGFBII38A06 (VHH)
VHH: B8 VHH with T54S, K74N, S80Y, T103L, E115D, E117D
B13: the binding result is “binds”.

B14: VEGFBII42F10 (VHH)
VHH: B8 VHH with T54S, Y59D, D73E, K74N, V79Q, S80F, D99G, T103A, E117D
Take B14: the binding result was “binds”.

B15: VEGFBII12A07 (VHH)
VHH: EVQLVESGGGLVQAGGSLRLSCSVTGRTFNKYVMGWFRQAPGNDREFVAAITSRDGPTYYADSVKGRFTISGDNTKNKIFLQMNSLMPEDTAVYYCAIDEDLYHYSSYHFTRVDLYHYWGQGTQVTVSS
For B15, the binding result is reported as “binds”.

B16: VEGFBII08F07 (VHH)
VHH: EVQLVESGGGLVQAGGSLRLSCAVSGSTFGLYAMGWFRQAPGREREFLSAITWSAGDTQYADSVKGRFTISRDNARNTVNLQMNGLKPEDTAVYYCAGRQWGGTYYYHGSYAYWGQGTQVTVSS
Consider B16, for which the binding result is given as “binds”.

B17: VEGFBII12G04 (VHH)
VHH: B16 VHH with A14S, G16D, S27N, L48V, Y113W
For B17, the binding result is listed as “binds”.

B18: VEGFBII04B08 (VHH)
VHH: EVQLVESGGGLVQPGGSLRLSCAASGSAVGDITVAWYRQAPGIQRQLVATITPSGYTYYWDFVKGRFTISRDNSKNIVYLQMNSLKPEDTAAYYCNTQFYWGQGTQVTVSS
Regarding B18, the binding result is given as “binds”.

B19: VEGFBII11C11 (VHH)
VHH: EVQLVESGGGLVQAGGSLMLSCAASGRALSSYAIGWFRQAPGREREFVARISWSGANTYYADSVKGRFTISRGNAKNTVYLQMNSLKPEDTAAYYCAAQTTSKYDNYDARAYGYWGQGTQVTVSS
In the case of B19, the binding result was “binds”.

B20: VEGFBII09A09 (VHH)
VHH: EVQLVESGGGLVQPGGSLRLSCVASGIRFMSMAWYRQAPGKHRELVARISSEGTTAYVDSVKGRFTISRDNSKNTVYLQMNSLKAEDTAVYYCNTFSSRPNPWGAGTTVTVSS
With B20, the binding result is “binds”.

B21: VEGFBII08E06 (VHH)
VHH: EVQLVESGGGLVQPGGSLRLSCAASGSIVRSDVMGWYRQAPGKQRELVAFIRSLGSTYYAGSVKGRFTISRDDAANTVYLQMNNLKPEDTAVYYCNARFSGESYWGQGTPVTVSS
Consider B21, for which the binding result is “binds”.

B22: VEGFBII12C04 (VHH)
VHH: B21 VHH with D73N
As for B22, the binding result was “binds”.

B23: VEGFBII08E07 (VHH)
VHH: EVQLVESGGGLAQAGGSLRLSCTTSGLTFSSYYMGWFRQAPGKEREFVATISWNKISTIYTDSVKGRFTVSRDNNKNTVYLQMNSLKPEDTAVYYCAADASRPTLRIPQYWGQGTQVTVSS
For the molecule B23, the binding result is on record as “binds”.

B24: VEGFBII11G09 (VHH)
VHH: EVQLVESGGGLVQAGGSLRLSCAASTSIYSITVMAWFRQAPGKEREFVAAITWSAPTTYSADSVKGRFTISRDNAKNTVYLQMNSLKPEDSAIYYCAADRFKGRSIVTRSDYRYWGQGTQVTVSS
As for B24, the binding result is recorded as “binds”.

B25: VEGFBII07A03 (VHH)
VHH: B24 VHH with R45S, T57S, T58S, S60Y, R113K
Take B25: the binding result is listed as “binds”.

B26: VEGFBII07A06 (VHH)
VHH: B24 VHH with A24V, T32S, E46A, S60Y, M83T
In the case of B26, the binding result was “binds”.

B27: VEGFBII11F10 (VHH)
VHH: B24 VHH with T57S, T58S, S60Y, M83V
Regarding B27, the binding result is given as “binds”.

B28: VEGFBII86C11 (VHH)
VHH: EVQLVESGGGLVQAGDSLRLSCTASGRTFNSYAMGWFRQAPGKERESVAHINRSGSSTYYADSVKGRFTISRDNAKNTVYLQLNSLKPEDTAVYYCAAGRYYSSDGVPSASFNYWGQGTQVTVSS
For B28, the binding result was “binds”.
